Measured values as given in US12006530B2, “Streptococcal proteases” (priority 2016, dated 2024).

Experiments:
[1] = system: rabbit IgG; assay: IgG cleavage by IgdE, SDS-PAGE; format: biochemical; conditions: purified polyclonal IgG
[2] = system: equine IgG6; assay: Cleavage of recombinant equine IgG subtypes, SDS-PAGE; format: biochemical, horse; conditions: 0.6 μM, 16 h at 37° C., reducing SDS-PAGE
Experimental: (§1) 0.6 μM recombinant equine IgG subtypes or serum IgG were incubated for 16 h at 37° C. with (+) or without (−) the soluble fraction of E. coli cells expressing rIgdEequi. Reactions were analyzed by SDS-PAGE under reducing conditions. […] SDS-PAGE was either stained with Coomassie Fluor Orange Protein Gel Stain (A) or subjected to Western blot (B) analyses with Rabbit Anti-Horse IgG H&L (HRP) ab6921.

[3] = system: equine IgG3; assay: as above; format: biochemical, horse; conditions: 0.6 μM, 16 h at 37° C., reducing SDS-PAGE
Experimental: as §1

[4] = system: equine IgG7; assay: as above; format: biochemical, horse; conditions: 0.6 μM, 16 h at 37° C., reducing SDS-PAGE
Experimental: as §1

[5] = system: equine IgG5; assay: as above; format: biochemical, horse; conditions: 0.6 μM, 16 h at 37° C., reducing SDS-PAGE
Experimental: as §1

[6] = system: equine IgG2; assay: as above; format: biochemical, horse; conditions: 0.6 μM, 16 h at 37° C., reducing SDS-PAGE
Experimental: as §1

[7] = system: equine IgG4; assay: as above; format: biochemical, horse; conditions: 0.6 μM, 16 h at 37° C., reducing SDS-PAGE
Experimental: as §1

[8] = system: equine IgG1; assay: as above; format: biochemical, horse; conditions: 0.6 μM, 16 h at 37° C., reducing SDS-PAGE
Experimental: as §1

[9] = system: rat IgG; assay: IgG cleavage by IgdE, SDS-PAGE; format: biochemical; conditions: purified polyclonal IgG
[10] = system: goat IgG; assay: IgG cleavage by IgdE, SDS-PAGE; format: biochemical; conditions: purified polyclonal IgG, reducing SDS-PAGE
Experimental: (§2) 0.5 mg/ml of porcine IgG (Sigma) in PBS or of other species (human, goat, cow, horse and mouse; all Sigma) were incubated with either crude extracts of induced E. coli carrying S. suis IgdE constructs mentioned above or 10 nM purified rIgdE for 16 h at 37° C. prior subjection to SDS-PAGE under either reducing or non-reducing conditions.
(§3) Samples for SDS-PAGE were prepared with either reducing or non-reducing sample buffer and heated to 95° C. for 5 min. 12% SDS-PAGE was either stained with Coomassie blue (Sigma), Coomassie Fluor™ Orange Protein Gel Stain (Invitrogen) or blotted to Hybond-P PVDF membrane (GE Healthcare) for western blot analyses. Membranes were blocked with 5% dry milk powder in 0.1% PBS-Tween, followed by incubation with horse-radish peroxidase conjugated antibodies. Goat anti-pig IgG-HRP (Thermo Scientific) and goat anti-porcine IgM-HRP (Thermo Scientific) was diluted 1:25′000 and goat anti-porcine IgA-HRP (Thermo Scientific) was diluted 1:12′500. Membranes were thoroughly washed with 0.1% PBS-Tween prior to development with Amersham ECL Select Western blotting detection reagent (GE Healthcare) according to manufactures instruction and pictured by LAS4000 imaging system (Fujifilm).

[11] = system: mouse IgG; assay: IgG cleavage by IgdE, SDS-PAGE; format: biochemical; conditions: purified polyclonal IgG, reducing SDS-PAGE
Experimental: as §2, §3

[12] = system: horse IgG; assay: IgG cleavage by IgdE, SDS-PAGE; format: biochemical; conditions: purified polyclonal IgG, reducing SDS-PAGE
Experimental: as §2, §3

[13] = system: cow IgG; assay: IgG cleavage by IgdE, SDS-PAGE; format: biochemical; conditions: purified polyclonal IgG, reducing SDS-PAGE
Experimental: as §2, §3

[14] = system: porcine IgG; assay: IgG cleavage by IgdE, SDS-PAGE; format: biochemical, pig; conditions: purified polyclonal IgG, reducing SDS-PAGE
Experimental: (A) Schematic illustration of IgdE and the different rIgdE constructs with potential active site residues substitutions and the C-terminal truncation variant. The secretion signal peptide (residues 1-37) is marked in light grey, the transglutaminase domain is boxed and the potential active site residues and substitutions are indicated. (B) 3.3 μM porcine IgG was incubated for 16 h at 37° C. with soluble fractions of E. coli cells expressing different rIgdE constructs. The reaction was analyzed SDS-PAGE under reducing conditions. […] The weak protein band of 37 kDa is a contaminant present in lysate preparation and not related to IgdE activity.
as §2, §3

[15] = system: IgG in equine serum; assay: Ig cleavage in equine serum, anti-IgG Western blot; format: biochemical, horse
[16] = system: IgG; assay: IgG degrading cysteine protease activity: specificity as summarised; format: biochemical; conditions: summary statement
Source text: Typically, polypeptides for use in accordance with the invention display immunoglobulin cysteine protease activity, and in particular IgG degrading cysteine protease activity. Preferably, the polypeptide cleaves IgG in the hinge region and more particularly in the hinge region of the heavy chain. Preferably, cleavage results in production of Fc and Fab fragments of IgG. Preferably the activity is specific for IgG. The IgG degrading cysteine protease activity may be determined by means of a suitable assay. For example, a test polypeptide may be incubated with IgG at a suitable temperature, such as 37° C. The starting materials and the reaction products may then be analysed by SDS PAGE to determine whether the desired IgG cleavage product is present. Typically this cleavage product is a 32 kDa fragment. Typically there is no further degradation of IgG after this first cleavage. The cleavage product may be subjected to N-terminal sequencing to verify that cleavage has occurred in the hinge region of IgG.
The IgG degrading cysteine protease activity of the polypeptides is generally IgG-specific in that the polypeptides may not degrade other classes of Ig, namely IgM, and IgA, when incubated with these immunoglobulins under conditions that permit cleavage of IgG.

[17] = system: human IgG; assay: IgG cleavage by IgdE, SDS-PAGE; format: biochemical; conditions: purified polyclonal IgG, reducing SDS-PAGE
Experimental: (A) rIgdEagalactiae was incubated with polyclonal IgG of six different species for 18 h at 37° C. and analyzed by SDS-PAGE under reducing conditions. Degradation products are indicated by asterisks (*). Images of different gels have been used to create the figure. (B) rIgdEagalactiae was incubated with human or bovine serum for 18 h in 37° C. and analyzed by SDS-PAGE under reducing conditions. Degradation products are indicated by asterisks (*). (C) Western Blot with crude extracts of rIgdEagalactiae incubated with human and porcine serum for 18 h in 37° C. Membrane was treated with antibodies against human and porcine polyclonal IgG respectively. Degradation products are indicated by asterisks (*). (D) rIgdEagalactiae was incubated with subclasses of human IgG as well as human IgA and IgM for 18 h in 37° C. and analyzed by SDS-PAGE under reducing conditions. Degradation products are indicated by asterisks (*). Images of different gels have been used to create the figure.
as §2, §3

B1: IgdEequi: IgdE isolated from S. equi strain ssp zooepidemicus #1, SEQ ID NO: 7 (protein, listed as Streptococcus equi)
chain: MEAWKHGSMEAWKHGSMEAWKHGRTLCKGLLLGLACGAISMSLVVKSTIVVADDVRLSEQSTVILDNTVSNLISEVKDELAKNHQDALEIYILGEGSPKYSGVSPDRLGDYIKDYKPVRLNGKVIHGRAFFMMKKEDQLISTKEEYDRIIAERFSNLEKFDYPTIHYTFNAELKDKYPYLSLILKASGLSLSDSINLGSTLGINGVTIHTQHLRIDNQFAYRYNGEDYKQDSHITFDRFKKNDDKLKELIATSGANQEGLTDAQRVKAYVLYMANHVDYDWDATRYNPDYLIFCQASDLFALTERNKAMCIGFSTAAARGLNLLGIPSYVTYGKNRDGVAHATIRAFYDKKWRTLDVTGVGRGKYTEEHYDNLNTHDYKIFDLTKETNVDLDRGYMEIYKDFEDWILSHNTKELLFINQDANIRNKVAKDVFKYIQEAEKQSLIDKYNEFIIRTSALKAEFKTDRLKEIVGSLVSQAQEELENIKHIEVMTEDEKDQFEYTLRNLGVYYSQCESANQ
cleavage of polyclonal rabbit IgG [1]: No degradation product was observed
cleavage of recombinant equine IgG6 [2]: No degradation product was observed
cleavage of recombinant equine IgG3 [3]: No degradation product was observed
cleavage of recombinant equine IgG7 (32 kDa degradation product) [4]: cleaved
cleavage of recombinant equine IgG5 [5]: No degradation product was observed
cleavage of recombinant equine IgG2 [6]: No degradation product was observed
cleavage of recombinant equine IgG4 [7]: No degradation product was observed
cleavage of recombinant equine IgG1 [8]: No degradation product was observed
cleavage of polyclonal rat IgG [9]: No degradation product was observed
cleavage of polyclonal goat IgG [10]: No degradation product was observed
cleavage of polyclonal mouse IgG [11]: No degradation product was observed
cleavage of polyclonal horse IgG [12]: cleaved
cleavage of polyclonal cow IgG [13]: No degradation product was observed
cleavage of polyclonal porcine IgG (32 kDa degradation product) [14]: No degradation product was observed
cleavage of IgG in equine serum [15]: cleaved IgG in equine serum
immunoglobulin specificity of the IgG degrading cysteine protease activity [16]: specific for equine IgG, and specifically equine IgG7
cleavage of polyclonal human IgG (32 kDa degradation product) [17]: No degradation product was observed
